# Measured values from the supplement of paper PMC9112550, “Optimization of the antimicrobial peptide Bac7 by deep mutational scanning” (BMC Biology, 2022).
# Tested on: Escherichia coli TOP10
# Experiment: shrunken log2 fold change of peptide-encoding DNA abundance (4.5 h post-induction vs induction); higher = less antimicrobial activity (less host growth inhibition)
# Conditions: time post-induction: 4.5 h; library: site-saturation at positions 5, 18, 19, 20
# 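Also: peptides expressed intracellularly from a pBAD plasmid library in pooled LB shake-flask culture, induced with 0.3% L-arabinose, DNA abundance read by NGS, three biological replicates, DESeq2 with apeglm shrinkage.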
row,Sequence,shrunken log2 fold change
1,RRIRGRPPRLPRPRPRPTATPRP,3.4
2,RRIRVRPPRLPRPRPRPHSSPRP,-0.531
3,RRIRSRPPRLPRPRPRPFLFPRP,-0.329
4,RRIRPRPPRLPRPRPRPTCFPRP,0.0572
5,RRIRFRPPRLPRPRPRPYSLPRP,-0.00881
6,RRIRHRPPRLPRPRPRPETMPRP,0.054
7,RRIRYRPPRLPRPRPRPTLMPRP,-0.301
8,RRIRWRPPRLPRPRPRPCDMPRP,-0.173
9,RRIRPRPPRLPRPRPRPTLDPRP,0.172
10,RRIRRRPPRLPRPRPRPIRFPRP,0.0747
11,RRIRRRPPRLPRPRPRPMIIPRP,-0.171
12,RRIRDRPPRLPRPRPRPNCPPRP,-0.00232
13,RRIRSRPPRLPRPRPRPGWAPRP,0.706
14,RRIRFRPPRLPRPRPRPFIMPRP,-0.655
15,RRIRPRPPRLPRPRPRPDNLPRP,-0.35
16,RRIRGRPPRLPRPRPRPDHLPRP,0.117
17,RRIRIRPPRLPRPRPRPFMGPRP,-0.438
18,RRIRTRPPRLPRPRPRPMKNPRP,-0.146
19,RRIRVRPPRLPRPRPRPCRIPRP,-0.385
20,RRIRARPPRLPRPRPRPSWTPRP,-0.392
21,RRIRLRPPRLPRPRPRPHYGPRP,-0.232
22,RRIRIRPPRLPRPRPRPRILPRP,-0.188

row,Sequence,shrunken log2 fold change
1,RRIRRRPPRLPRPRPRPDCDPRP,0.222
2,RRIRYRPPRLPRPRPRPVVSPRP,-0.595
3,RRIRPRPPRLPRPRPRPKVQPRP,0.327
4,RRIRARPPRLPRPRPRPWFMPRP,-0.108
5,RRIRFRPPRLPRPRPRPYDWPRP,-0.147
6,RRIRERPPRLPRPRPRPHTPPRP,0.229
7,RRIRMRPPRLPRPRPRPGGWPRP,1.32
8,RRIRCRPPRLPRPRPRPMGPPRP,0.128
9,RRIRRRPPRLPRPRPRPWGDPRP,-0.0841
10,RRIRIRPPRLPRPRPRPKARPRP,-0.0685
11,RRIRERPPRLPRPRPRPGNGPRP,-0.0693
12,RRIRLRPPRLPRPRPRPGSMPRP,-0.192
13,RRIRKRPPRLPRPRPRPGKQPRP,0.599
14,RRIRNRPPRLPRPRPRPHFDPRP,-0.356
15,RRIRKRPPRLPRPRPRPMAGPRP,0.0722
16,RRIRLRPPRLPRPRPRPCTAPRP,-0.139
17,RRIRNRPPRLPRPRPRPGVEPRP,0.604
18,RRIRQRPPRLPRPRPRPYWQPRP,-0.411
19,RRIRNRPPRLPRPRPRPMHKPRP,-0.131
20,RRIRKRPPRLPRPRPRPPVVPRP,0.453
21,RRIRNRPPRLPRPRPRPVTLPRP,-0.3
22,RRIRHRPPRLPRPRPRPMPEPRP,0.283

row,Sequence,shrunken log2 fold change
1,RRIRYRPPRLPRPRPRPTKEPRP,-0.00889
2,RRIRARPPRLPRPRPRPITRPRP,0.00663
3,RRIRSRPPRLPRPRPRPHVTPRP,-0.232
4,RRIRKRPPRLPRPRPRPYSKPRP,-0.608
5,RRIRQRPPRLPRPRPRPITRPRP,0.0297
6,RRIRHRPPRLPRPRPRPVVNPRP,0.00319
7,RRIRFRPPRLPRPRPRPMHMPRP,-0.011
8,RRIRERPPRLPRPRPRPRVTPRP,0.107
9,RRIRNRPPRLPRPRPRPNFSPRP,-0.0166
10,RRIRQRPPRLPRPRPRPEYWPRP,0.0626
11,RRIRTRPPRLPRPRPRPKTVPRP,-0.0654
12,RRIRFRPPRLPRPRPRPSKIPRP,0.903
13,RRIRFRPPRLPRPRPRPMKLPRP,-0.0666
14,RRIRPRPPRLPRPRPRPIEKPRP,0.0388
15,RRIRERPPRLPRPRPRPTVHPRP,-0.42
16,RRIRIRPPRLPRPRPRPVAQPRP,-0.103
17,RRIRHRPPRLPRPRPRPGFGPRP,0.384
18,RRIRQRPPRLPRPRPRPAKGPRP,0.01
19,RRIRQRPPRLPRPRPRPRWNPRP,-0.0799
20,RRIRKRPPRLPRPRPRPSIRPRP,-0.375
21,RRIRYRPPRLPRPRPRPWIRPRP,-0.371
22,RRIRKRPPRLPRPRPRPTGGPRP,0.13

row,Sequence,shrunken log2 fold change
1,RRIRMRPPRLPRPRPRPMHRPRP,-0.156
2,RRIRIRPPRLPRPRPRPVYIPRP,-0.154
3,RRIRDRPPRLPRPRPRPTVTPRP,0.853
4,RRIRERPPRLPRPRPRPVQIPRP,0.27
5,RRIRPRPPRLPRPRPRPLYPPRP,-0.244
6,RRIRERPPRLPRPRPRPQDTPRP,2.38
7,RRIRARPPRLPRPRPRPPTWPRP,1.67
8,RRIRPRPPRLPRPRPRPHYWPRP,-0.41
9,RRIRSRPPRLPRPRPRPSRAPRP,0.281
10,RRIRCRPPRLPRPRPRPCYGPRP,-0.28
11,RRIRTRPPRLPRPRPRPDKTPRP,-0.108
12,RRIRHRPPRLPRPRPRPHPWPRP,-0.0988
13,RRIRTRPPRLPRPRPRPHPWPRP,-0.0609
14,RRIRTRPPRLPRPRPRPKGIPRP,0.0275
15,RRIRIRPPRLPRPRPRPRRWPRP,0.592
16,RRIRKRPPRLPRPRPRPGDVPRP,0.278
17,RRIRTRPPRLPRPRPRPWIQPRP,-0.194
18,RRIRVRPPRLPRPRPRPYSRPRP,-0.0134
19,RRIRQRPPRLPRPRPRPRSTPRP,0.203
20,RRIRIRPPRLPRPRPRPETEPRP,0.0848
21,RRIRLRPPRLPRPRPRPIFCPRP,-0.314
22,RRIRNRPPRLPRPRPRPWIAPRP,-0.135

row,Sequence,shrunken log2 fold change
1,RRIRPRPPRLPRPRPRPWIFPRP,-0.0541
2,RRIRKRPPRLPRPRPRPCPNPRP,-0.0875
3,RRIRWRPPRLPRPRPRPRFRPRP,0.314
4,RRIRLRPPRLPRPRPRPRDPPRP,0.968
5,RRIRHRPPRLPRPRPRPYQVPRP,-0.0252
6,RRIRERPPRLPRPRPRPPCMPRP,-0.272
7,RRIRSRPPRLPRPRPRPATEPRP,0.121
8,RRIRLRPPRLPRPRPRPTQVPRP,0.452
9,RRIRWRPPRLPRPRPRPKYHPRP,0.185
10,RRIRERPPRLPRPRPRPEWHPRP,0.0244
11,RRIRPRPPRLPRPRPRPMGAPRP,0.117
12,RRIRYRPPRLPRPRPRPPIGPRP,-0.0423
13,RRIRDRPPRLPRPRPRPYMTPRP,-0.0206
14,RRIRKRPPRLPRPRPRPVKTPRP,0.141
15,RRIRLRPPRLPRPRPRPALMPRP,0.306
16,RRIRFRPPRLPRPRPRPNHDPRP,-0.332
17,RRIRYRPPRLPRPRPRPDYYPRP,-0.00141
18,RRIRSRPPRLPRPRPRPCWEPRP,0.311
19,RRIRWRPPRLPRPRPRPSKTPRP,0.0507
20,RRIRNRPPRLPRPRPRPKNEPRP,-0.0366
21,RRIRPRPPRLPRPRPRPSHIPRP,-0.505
